Legend:
[1] = molecular target: MecA fused to the RenG N-terminal domain (1-155) (S. mutans) (UniProt Q8DW33); test: split reporter (BiFC, NanoBiT)
[2] = molecular target: RNase J1 fused to the RenG N-terminal domain (NTD1, 1-155) (S. mutans); test: split reporter (BiFC, NanoBiT); RenG split luciferase complementation assay (SLCA) in live S. mutans at mid-log phase, coelenterazine-h, normalised to OD600; signal relative to unfused fragments; relative binding affinity = SLCA value divided by the value of the whole-RenG chimera of the less abundant partner

Sequence of MecA fused to the RenG N-terminal domain (1-155) (S. mutans) (Q8DW33 whole entry, the tested form may be a part): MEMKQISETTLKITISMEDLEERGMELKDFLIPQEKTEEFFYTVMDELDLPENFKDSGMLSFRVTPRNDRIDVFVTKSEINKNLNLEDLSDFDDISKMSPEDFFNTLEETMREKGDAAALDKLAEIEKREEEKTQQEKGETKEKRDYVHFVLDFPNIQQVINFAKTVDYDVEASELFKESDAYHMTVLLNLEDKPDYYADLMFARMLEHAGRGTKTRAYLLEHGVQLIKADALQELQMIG

Substance | relative binding affinity (%) [1] [%] | relative binding affinity (%) [2] [%]
ComX fused to the RenG C-terminal domain (156-314) (natural protein) | 6.3 | –
GyrA fused to the RenG C-terminal domain (156-314) (natural protein) | 12.9 | –
PcrA fused to the RenG C-terminal domain (156-314) (from UniProt Q8DTY6 1-733) (natural protein) | 6.36 | –
RNase J2 fused to the RenG C-terminal domain (CTD1, 156-314) (natural protein) | – | 97.8
SpaP fused to the RenG C-terminal domain (156-314) (from UniProt P23504 998-1532) (natural protein) | 1.72 | –

Reference: paper PMC10845952
